These results are taken from article PMC9482650, “Quantitative fragmentomics allow affinity mapping of interactomes” (Nature Communications, 2022).

Targets include MAGI2_5, Q86UL8; MAGI1_2, Q96QZ7; Inadl_4, Q8NI35; Inadl_3, Q8NI35; Inadl_9, Q8NI35; DLG1_1, Q12959; DLG1_3, Q12959; DLG4_1, P78352.
What all share (assay): holdup assay
Holding throughout (parameters): key: below the threshold = too weak to quantify, mostly under pKd 3.1 to 4

The next assay addresses T1, APBA2_2, Q99767.
T1 sequence (Q99767 654-744, limits assumed, looked up): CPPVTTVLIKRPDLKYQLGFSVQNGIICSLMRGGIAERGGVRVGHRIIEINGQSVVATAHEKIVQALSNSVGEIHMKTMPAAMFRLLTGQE

Another assay has as its target T2, SYNJ2BP, P57105.
T2 sequence (P57105 8-110, limits assumed, looked up): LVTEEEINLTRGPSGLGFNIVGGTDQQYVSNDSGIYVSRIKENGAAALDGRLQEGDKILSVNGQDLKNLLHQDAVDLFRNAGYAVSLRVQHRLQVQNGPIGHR

A further assay concerns the target T3, GRIP1_2, Q9Y3R0.
T3 sequence (Q9Y3R0 145-248, limits assumed, looked up): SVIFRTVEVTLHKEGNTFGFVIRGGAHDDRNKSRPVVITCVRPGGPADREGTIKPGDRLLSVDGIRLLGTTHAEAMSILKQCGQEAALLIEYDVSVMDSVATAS

Another assay deals with T4, GRIP1_3, Q9Y3R0.
T4 sequence (Q9Y3R0 247-346, limits assumed, looked up): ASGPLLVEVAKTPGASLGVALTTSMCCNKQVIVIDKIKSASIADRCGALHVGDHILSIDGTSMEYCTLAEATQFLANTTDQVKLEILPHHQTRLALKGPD

In the next assay the target is T5, RAPGEF6, Q8TEU7.
T5 sequence (Q8TEU7 525-625, limits assumed, looked up): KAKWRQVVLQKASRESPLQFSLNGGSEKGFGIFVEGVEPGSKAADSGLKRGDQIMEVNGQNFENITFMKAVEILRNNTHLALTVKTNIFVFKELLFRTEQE

A further assay concerns the target T6, APBA1_1, Q02410.
T6 sequence (Q02410 651-752, limits assumed, looked up): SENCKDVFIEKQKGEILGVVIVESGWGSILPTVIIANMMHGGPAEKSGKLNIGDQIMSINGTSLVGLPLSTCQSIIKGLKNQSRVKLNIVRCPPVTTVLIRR

For the next assay, the target named is T7, TIAM2, Q8IVF5.
T7 sequence (Q8IVF5 885-986, limits assumed, looked up): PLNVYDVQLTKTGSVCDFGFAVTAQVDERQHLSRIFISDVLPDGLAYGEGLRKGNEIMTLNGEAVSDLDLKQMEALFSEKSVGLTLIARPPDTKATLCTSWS

In the next assay the target is T8, SNTA1, Q13424.
T8 sequence (Q13424 82-180, limits assumed, looked up): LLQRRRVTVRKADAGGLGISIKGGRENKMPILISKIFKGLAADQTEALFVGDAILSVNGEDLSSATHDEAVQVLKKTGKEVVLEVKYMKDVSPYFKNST

The next assay concerns the target T9, HTRA4, P83105.
T9 sequence (P83105 378-476, limits assumed, looked up): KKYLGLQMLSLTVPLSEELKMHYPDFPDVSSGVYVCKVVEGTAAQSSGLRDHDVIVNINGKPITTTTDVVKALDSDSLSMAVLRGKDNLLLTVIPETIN

The next assay addresses T10, TX1BP3, O14907.
T10 sequence (O14907 10-122, limits assumed, looked up): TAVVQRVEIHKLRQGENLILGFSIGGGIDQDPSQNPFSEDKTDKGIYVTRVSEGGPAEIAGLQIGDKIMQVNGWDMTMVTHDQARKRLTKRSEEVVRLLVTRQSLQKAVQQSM

The target in another assay is T11, APBA2_1, Q99767.
T11 sequence (Q99767 563-664, limits assumed, looked up): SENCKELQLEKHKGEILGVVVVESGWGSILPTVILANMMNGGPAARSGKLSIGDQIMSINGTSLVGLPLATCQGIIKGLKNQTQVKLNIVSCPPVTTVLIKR

In a further assay the target is T12, DFNB31_3, Q9P202.
T12 sequence (Q9P202 811-907, limits assumed, looked up): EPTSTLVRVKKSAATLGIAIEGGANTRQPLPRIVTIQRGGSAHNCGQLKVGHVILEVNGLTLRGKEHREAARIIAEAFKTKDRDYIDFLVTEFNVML

A further assay concerns the target T13, PDZD7_3, Q9H5P4.
T13 sequence (Q9H5P4 857-944, limits assumed, looked up): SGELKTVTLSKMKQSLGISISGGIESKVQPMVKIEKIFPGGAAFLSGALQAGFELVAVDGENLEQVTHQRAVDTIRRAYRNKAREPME

In another assay the target is T14, LIN7C, Q9NUP9.
T14 sequence (Q9NUP9 88-185, limits assumed, looked up): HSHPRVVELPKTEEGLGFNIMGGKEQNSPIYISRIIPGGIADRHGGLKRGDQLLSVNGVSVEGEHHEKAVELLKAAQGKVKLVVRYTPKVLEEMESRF

The mark [1] stands for this setting: plain residues with an end cap or a label only (N-terminal biotin on a linker: ttds).
Setting [2] is: plain residues with an end cap or a label only (N-terminal biotin on a linker: ahx).

Sequence of Inadl_3, Q8NI35 (Q8NI35 359-469): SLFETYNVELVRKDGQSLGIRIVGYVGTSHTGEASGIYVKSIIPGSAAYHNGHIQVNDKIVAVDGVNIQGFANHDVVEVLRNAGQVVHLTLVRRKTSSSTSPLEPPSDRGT
Sequence of Inadl_4, Q8NI35 (Q8NI35 547-651): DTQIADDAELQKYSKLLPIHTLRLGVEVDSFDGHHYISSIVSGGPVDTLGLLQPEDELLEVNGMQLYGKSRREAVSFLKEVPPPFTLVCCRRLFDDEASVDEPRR
Sequence of MAGI1_2, Q96QZ7 (Q96QZ7 456-580): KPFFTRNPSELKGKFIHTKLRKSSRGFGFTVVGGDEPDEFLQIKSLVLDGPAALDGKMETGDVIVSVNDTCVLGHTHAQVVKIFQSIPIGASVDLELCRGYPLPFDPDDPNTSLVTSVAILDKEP
Sequence of MAGI2_5, Q86UL8 (Q86UL8 915-1017): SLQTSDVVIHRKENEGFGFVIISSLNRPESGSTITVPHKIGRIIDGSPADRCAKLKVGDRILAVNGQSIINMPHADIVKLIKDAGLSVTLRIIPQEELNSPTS
Sequence of DLG4_1, P78352 (P78352 62-152): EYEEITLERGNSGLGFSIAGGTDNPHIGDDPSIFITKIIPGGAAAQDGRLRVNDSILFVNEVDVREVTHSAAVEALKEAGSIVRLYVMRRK
Sequence of Inadl_9, Q8NI35 (Q8NI35 1530-1615): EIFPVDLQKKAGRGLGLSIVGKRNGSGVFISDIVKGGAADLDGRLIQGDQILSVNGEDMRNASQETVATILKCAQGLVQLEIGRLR

The term pKd denotes −log10 of the Kd, conventionally taken in molar units. With CNTVTVETVV [MAS1, P04201], the pKd entry in the assay with APBA2_2, Q99767 (setting [1]) was “below the threshold”; with SYNJ2BP, P57105 (setting [1]), 3.98; with MAGI2_5, Q86UL8 (setting [1]) it was 3.95; with MAGI1_2, Q96QZ7 (setting [1]), “below the threshold”; with GRIP1_2, Q9Y3R0 (setting [1]), 3.61; with GRIP1_3, Q9Y3R0 (setting [1]) it was “below the threshold”. Moreover, the pKd entry in the assay with RAPGEF6, Q8TEU7 (setting [1]) was “below the threshold”; with Inadl_4, Q8NI35 (setting [1]), “below the threshold”; in the assay with APBA1_1, Q02410 (setting [1]), “below the threshold”; with Inadl_3, Q8NI35 (setting [1]), 3.75; in the assay with TIAM2, Q8IVF5 (setting [1]), “below the threshold”; with SNTA1, Q13424 (setting [1]), 4.34. In addition, the pKd entry with HTRA4, P83105 (setting [1]) is “below the threshold”; in the assay with TX1BP3, O14907 (setting [1]), “below the threshold”; in the assay with Inadl_9, Q8NI35 (setting [1]), “below the threshold”; with DLG1_1, Q12959 (setting [1]) it was 4.06; with APBA2_1, Q99767 (setting [1]), “below the threshold”; with DFNB31_3, Q9P202 (setting [1]) it was “below the threshold”. The pKd in the assay with PDZD7_3, Q9H5P4 (setting [1]) was 4.27; with DLG1_3, Q12959 (setting [1]), “below the threshold”; in the assay with DLG4_1, P78352 (setting [1]) it was 3.98; in the assay with LIN7C, Q9NUP9 (setting [1]), 3.64.

Consider KKNKDKEYYV [NRXN1, Q9ULB1], for which the pKd result with APBA2_2, Q99767 (setting [2]) is “below the threshold”; with SYNJ2BP, P57105 (setting [2]), “below the threshold”; in the assay with MAGI2_5, Q86UL8 (setting [2]), 3.57; with MAGI1_2, Q96QZ7 (setting [2]), “below the threshold”; with GRIP1_2, Q9Y3R0 (setting [2]), “below the threshold”; with GRIP1_3, Q9Y3R0 (setting [2]) it was “below the threshold”. The pKd entry in the assay with RAPGEF6, Q8TEU7 (setting [2]) was “below the threshold”; with Inadl_4, Q8NI35 (setting [2]), “below the threshold”; with APBA1_1, Q02410 (setting [2]) it was “below the threshold”; with Inadl_3, Q8NI35 (setting [2]) it was “below the threshold”; in the assay with TIAM2, Q8IVF5 (setting [2]), 4.11; in the assay with SNTA1, Q13424 (setting [2]), “below the threshold”. The pKd result in the assay with HTRA4, P83105 (setting [2]) was “below the threshold”; with TX1BP3, O14907 (setting [2]), “below the threshold”; in the assay with Inadl_9, Q8NI35 (setting [2]), 3.97; with DLG1_1, Q12959 (setting [2]), “below the threshold”; with APBA2_1, Q99767 (setting [2]) it was “below the threshold”; in the assay with DFNB31_3, Q9P202 (setting [2]), “below the threshold”. For the same molecule, the negative-log Kd (pKd) result is “below the threshold” with PDZD7_3, Q9H5P4 (setting [2]); “below the threshold” in the assay with DLG1_3, Q12959 (setting [2]); “below the threshold” with DLG4_1, P78352 (setting [2]); “below the threshold” in the assay with LIN7C, Q9NUP9 (setting [2]).

On to RRVRKLPSTTL [RPS6KA1, Q15418], for which the pKd result with APBA2_2, Q99767 (setting [1]) is “below the threshold”; in the assay with SYNJ2BP, P57105 (setting [1]) it was 3.82; in the assay with MAGI2_5, Q86UL8 (setting [1]) it was “below the threshold”; with MAGI1_2, Q96QZ7 (setting [1]), 4.3; with GRIP1_2, Q9Y3R0 (setting [1]) it was “below the threshold”; in the assay with GRIP1_3, Q9Y3R0 (setting [1]), “below the threshold”. Further, the pKd with RAPGEF6, Q8TEU7 (setting [1]) is 3.7; with Inadl_4, Q8NI35 (setting [1]) it was “below the threshold”; in the assay with APBA1_1, Q02410 (setting [1]), “below the threshold”; in the assay with Inadl_3, Q8NI35 (setting [1]) it was “below the threshold”; with TIAM2, Q8IVF5 (setting [1]), 3.5; with SNTA1, Q13424 (setting [1]), 3.87. Besides, the pKd is 3.71 in the assay with HTRA4, P83105 (setting [1]); “below the threshold” with TX1BP3, O14907 (setting [1]); “below the threshold” with Inadl_9, Q8NI35 (setting [1]); “below the threshold” with DLG1_1, Q12959 (setting [1]); “below the threshold” in the assay with APBA2_1, Q99767 (setting [1]); 4.14 in the assay with DFNB31_3, Q9P202 (setting [1]). Besides, the pKd with PDZD7_3, Q9H5P4 (setting [1]) was 4.93; with DLG1_3, Q12959 (setting [1]), 3.63; with DLG4_1, P78352 (setting [1]), 3.68; in the assay with LIN7C, Q9NUP9 (setting [1]), “below the threshold”.

On to QPGTPTRTAV [MAP2K2, P36507], for which the pKd entry is “below the threshold” with APBA2_2, Q99767 (setting [1]); “below the threshold” with SYNJ2BP, P57105 (setting [1]); 3.59 in the assay with MAGI2_5, Q86UL8 (setting [1]); “below the threshold” in the assay with MAGI1_2, Q96QZ7 (setting [1]); “below the threshold” in the assay with GRIP1_2, Q9Y3R0 (setting [1]); “below the threshold” with GRIP1_3, Q9Y3R0 (setting [1]). Further, the negative-log Kd (pKd) in the assay with RAPGEF6, Q8TEU7 (setting [1]) is 3.67; in the assay with Inadl_4, Q8NI35 (setting [1]), “below the threshold”; with APBA1_1, Q02410 (setting [1]), “below the threshold”; with Inadl_3, Q8NI35 (setting [1]), “below the threshold”; with TIAM2, Q8IVF5 (setting [1]), “below the threshold”; with SNTA1, Q13424 (setting [1]), “below the threshold”. Moreover, the pKd entry with HTRA4, P83105 (setting [1]) was “below the threshold”; in the assay with TX1BP3, O14907 (setting [1]), 3.97; with Inadl_9, Q8NI35 (setting [1]), “below the threshold”; with DLG1_1, Q12959 (setting [1]), 3.53; with APBA2_1, Q99767 (setting [1]) it was “below the threshold”; in the assay with DFNB31_3, Q9P202 (setting [1]), “below the threshold”. For the same molecule, the pKd result with PDZD7_3, Q9H5P4 (setting [1]) is “below the threshold”; in the assay with DLG1_3, Q12959 (setting [1]) it was “below the threshold”; in the assay with DLG4_1, P78352 (setting [1]), “below the threshold”; with LIN7C, Q9NUP9 (setting [1]) it was “below the threshold”.

On to TEEEVQDTRL [CFTR, P13569], for which the pKd entry with APBA2_2, Q99767 (setting [1]) was “below the threshold”; in the assay with SYNJ2BP, P57105 (setting [1]) it was “below the threshold”; in the assay with MAGI2_5, Q86UL8 (setting [1]), “below the threshold”; with MAGI1_2, Q96QZ7 (setting [1]) it was “below the threshold”; with GRIP1_2, Q9Y3R0 (setting [1]), “below the threshold”; with GRIP1_3, Q9Y3R0 (setting [1]) it was “below the threshold”. In addition, the pKd entry with RAPGEF6, Q8TEU7 (setting [1]) was “below the threshold”; in the assay with Inadl_4, Q8NI35 (setting [1]), “below the threshold”; with APBA1_1, Q02410 (setting [1]), “below the threshold”; in the assay with Inadl_3, Q8NI35 (setting [1]), “below the threshold”; with TIAM2, Q8IVF5 (setting [1]), “below the threshold”; with SNTA1, Q13424 (setting [1]) it was 3.79. The pKd entry with HTRA4, P83105 (setting [1]) is reported as “below the threshold”; in the assay with TX1BP3, O14907 (setting [1]), “below the threshold”; with Inadl_9, Q8NI35 (setting [1]), “below the threshold”; with DLG1_1, Q12959 (setting [1]), “below the threshold”; with APBA2_1, Q99767 (setting [1]), “below the threshold”; in the assay with DFNB31_3, Q9P202 (setting [1]), “below the threshold”. The pKd with PDZD7_3, Q9H5P4 (setting [1]) is 4.23; with DLG1_3, Q12959 (setting [1]), “below the threshold”; with DLG4_1, P78352 (setting [1]), “below the threshold”; with LIN7C, Q9NUP9 (setting [1]) it was “below the threshold”.
